Laboratory results taken from publication PMC2172667 (The Journal of Cell Biology, 2003).

Target: the molecule itself
Test: AUC + SEC

B1: his-EPLIN-α (natural protein)
chain: MENCLGESRHEVEKSEISENTDASGKIEKYNVPLNRLKMMFEKGEPTQTKILRAQSRSASGRKISENSYSLDDLEIGPGQLSSSTFDSEKNESRRNLELPRLSETSIKDRMAKYQAAVSKQSSSTNYTNELKASGGEIKIHKMEQKENVPPGPEVCITHQEGEKISANENSLAVRSTPAEDDSRDSQVKSEVQQPVHPKPLSPDSRASSLSESSPPKAMKKFQAPARETCVECQKTVYPMERLLANQQVFHISCFRCSYCNNKLSLGTYASLHGRIYCKPHFNQLFKSKGNYDEGFGHRPHKDLWASKNENEEILERPAQLANARETPHSPGVEDAPIAKVGVLAASMEAKASSQQEKEDKPAETKKLRIAWPPPTELGSSGSALEEGIKMSKPKWPPEDEISKPEVPEDVDLDLKKLRRSSSLKERSRPFTVAASFQSTSVKSPKTVSPPIRKGWSMSEQSEESVGGRVAERKQVENAKASKKNGNVGKTTWQNKESKGETGKRSKEGHSLEMENENLVENGADSDEDDNSFLKQQSPQEPKSLNWSSFVDNTFAEEFTTQNQKSQDVELWEGEVVKELSVEEQIKRNRYYDEDEDEE
With B1 the “stoichiometry N” value was roughly 8 polypeptides.
